“Also recorded” adds a separate entry of the source.
What was measured:
[1] = format: physicochemical; details: pH 7.4
Description: The experimental determination of probe partition coefficients (log P values) was performed in 1-octanol and 0.02 M phosphate buffer pH 7.4 where the two phases were pre-saturated with each other. 1-Octanol (200 µl) and phosphate buffer (200 µl) were pipetted into LoBind Eppendorf tubes containing 0.37 MBq of probes. The tube was vortexed for 10 seconds, and centrifuged (5 min, 4000×g). Aliquots (50 µl) from the 1-octanol and buffer phases were transferred into two test tubes for radioactivity counting with a NaI well-type scintillation counter (1470 WIZARD, Perkin Elmer, Kanagawa, Japan). The partition coefficient was calculated using the equation P = (counts/µl in 1-octanol)/(counts/µl in buffer).

[2] = test system: HT1080 human fibrosarcoma cells; experiment: Cellular uptake study; format: cell-based; details: 5×10^5 HT1080 cells, FBS-free DMEM, 37 kBq probe, 30 min incubation, radioactivity counting, Fig. 3a
Description: HT1080 human fibrosarcoma cells were purchased from American Type Culture Collection (ATCC, Manassas, VA USA) and cultured in DMEM with low glucose (Invitrogen), 10% fetal bovine serum (FBS), and penicillin/streptomycin. MMP-2 cDNA was cloned into the pENTR vector (Invitrogen) and inserted into the pLenti6 vector (Invitrogen) as previously described, [7]. […] Protein quantitation was performed by BCA protein assay (Thermo Fisher Scientific, Inc. Rockford, IL USA). The cellular uptake study of MDAP3000 pretreated with activated MMP-2 (63 nM) in the presence or absence of GM6001 (100 µM) was performed as described above.

[3] = test system: HT1080 tumor xenograft; design: species or system mouse (Balb/c nu-nu); details: mouse, in vivo, iv
Description: (§1) […]3000 and […] (37 kBq, 100 μl in PBS including 3% bovine serum albumin and 0.1% Tween 80) were injected intravenously into the tail vein of tumor bearing mice. The mice were sacrificed at various post-injection time points (n = 3 for each time point), and the organs of interest including the tumor tissues were collected for determination of the weights. The radioactivity of each sample was measured with a NaI well-type scintillation counter. From fitting to the two phase decay curves for blood radioactivity data analyzed by GraphPad Prism 6 (GraphPad Software, San Diego, CA), whole body pharmacokinetic parameters such as blood half-lives, distribution volume, mean residence time and total clearance were calculated for each of the probes and the values compared. Simple pharmacokinetic analysis using a single tissue compartment model was applied to the biodistribution data to calculate rate constants (K1 and k2) for radioactivity transfer from blood to tumor and clearance from tumor to blood by PMOD version 3.2. In addition, MDAP3000 (7.4 MBq in 200 μl) was injected intravenously into the tail vein of tumor bearing mice for metabolite analysis in tumors excised 3, 6, and 24 hr post injection (n = 2 each). Tumor homogenates were prepared on ice and insoluble material was removed by centrifugation after methanol treatment. The resulting supernatant was analyzed by RP-HPLC.

[4] = test system: HT1080 tumor bearing mice; design: species or system mouse (Balb/c nu-nu); details: mouse, in vivo, iv
Description: as §1

[5] = test system: HT1080 tumor bearing mice; design: species or system mouse (Balb/c nu-nu); details: mouse, in vivo, iv; remark: listed apart in the source
Description: Female Balb/c nu-nu mice (5 weeks old, Japan SLC, Inc., Shizuoka, Japan) were housed under a 12-h light/12-h dark cycle and given free access to food and water. HT1080 cells (5×10^6 cells/100 μl PBS (-)/mouse) were subcutaneously inoculated into the right hind leg of Balb/c nu-nu mice. Animals were used for experiments two weeks after inoculation when the mean tumor size was 5.7±2.2 mm along the major axis. […]3000 and […] (37 kBq, 100 μl in PBS including 3% bovine serum albumin and 0.1% Tween 80) were injected intravenously into the tail vein of tumor bearing mice. The mice were sacrificed at various post-injection time points (n = 3 for each time point), and the organs of interest including the tumor tissues were collected for determination of the weights. The radioactivity of each sample was measured with a NaI well-type scintillation counter. From fitting to the two phase decay curves for blood radioactivity data analyzed by GraphPad Prism 6 (GraphPad Software, San Diego, CA), whole body pharmacokinetic parameters such as blood half-lives, distribution volume, mean residence time and total clearance were calculated for each of the probes and the values compared. Simple pharmacokinetic analysis using a single tissue compartment model was applied to the biodistribution data to calculate rate constants (K1 and k2) for radioactivity transfer from blood to tumor and clearance from tumor to blood by PMOD version 3.2. In addition, MDAP3000 (7.4 MBq in 200 μl) was injected intravenously into the tail vein of tumor bearing mice for metabolite analysis in tumors excised 3, 6, and 24 hr post injection (n = 2 each). Tumor homogenates were prepared on ice and insoluble material was removed by centrifugation after methanol treatment. The resulting supernatant was analyzed by RP-HPLC.

[6] = biological target: T1, Human-recombinant MMP-2 protein (Homo sapiens, UniProt P08253); experiment: Cleavage assay; format: biochemical; details: activated MMP-2 1–5 nM, 370 kBq probe, 37°C, 2 hr, pH 7.5 assay buffer, RP-HPLC, Fig. 3b
T1 construct: purchased R & D Systems, Inc. 902-MP-010
T1 sequence (P08253 110-660): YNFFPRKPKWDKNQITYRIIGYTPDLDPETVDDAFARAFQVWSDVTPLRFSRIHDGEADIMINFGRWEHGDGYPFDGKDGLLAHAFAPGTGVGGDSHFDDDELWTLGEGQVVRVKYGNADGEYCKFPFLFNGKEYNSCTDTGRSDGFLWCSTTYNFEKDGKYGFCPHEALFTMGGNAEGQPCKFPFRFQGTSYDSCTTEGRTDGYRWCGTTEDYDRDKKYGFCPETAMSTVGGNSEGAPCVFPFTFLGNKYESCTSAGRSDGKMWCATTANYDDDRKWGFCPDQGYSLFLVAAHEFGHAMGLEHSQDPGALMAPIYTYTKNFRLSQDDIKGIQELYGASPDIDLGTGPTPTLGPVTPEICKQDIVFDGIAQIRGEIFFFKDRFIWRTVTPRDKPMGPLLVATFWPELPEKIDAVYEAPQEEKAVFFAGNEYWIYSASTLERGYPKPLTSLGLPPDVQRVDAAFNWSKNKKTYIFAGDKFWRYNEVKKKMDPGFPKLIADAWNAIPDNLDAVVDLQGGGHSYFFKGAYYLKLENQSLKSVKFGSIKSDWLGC
Description: Human-recombinant MMP-2 protein (902-MP-010, R & D Systems, Inc., Minneapolis, MN USA) was activated with p-aminophenylmercuric acetate (1 mM) in assay buffer (50 mM Tris-HCl, 150 mM NaCl, 10 mM CaCl2, 5 µM ZnCl2, 0.02% Brij 35, pH 7.5). MDAP1000, MDAP3000, and MDAP5000 (370 kBq) were incubated at 37°C for 2 hr with activated MMP-2 (1–5 nM) and a MMP inhibitor (0 or 100 µM, GM6001, Merck KGaA, Darmstadt, Germany). The reaction was quenched by addition of methanol, and the percentage of cleaved peptide was estimated by RP-HPLC.

Substance | log P (partition coefficient) [1] | Cellular accumulation (radioactivity in tumor cells) [2] | K1, rate constant for transfer from blood to tumor, Mean [3] | Blood half-life, Fast [4] | Clearance (total clearance) [4] | Distribution volume [4] | Mean residence time [4] | Blood clearance (in words) [5] | T/B ratios over the experimental period [5] | Cleavage by MMP-2 [6]
Palmitoyl-Dap(p-SCN-Bn-DTPA-^111In)-10-Adc-Gly-Pro-Leu-Gly-OH [MDAPCV] | 0.29±0.07 | high accumulation group | 0.0022 mL/g/min | 4.17 h | 0.0025 mL/min | 2.16 mL | 860 min | slow blood clearance | less than 0.3 | 
Palmitoyl-Dap(p-SCN-Bn-DTPA-^111In)-10-Adc-Gly-Pro-Leu-Gly-Val-Arg-Gly-Lys(ivDde)-PEG5000 [MDAP5000] | −1.04±0.16 | significantly lower radioactivity |  |  |  |  |  |  |  | concentration-dependent manner; also recorded: rather low
